# Assay results reported in article PMC12285222.
# Molecular target: trypsin-processed Vip3Cb1 toxin (Paenibacillus sp. strain DSC004343)
# Assay: cryo-EM structure
substance,measurement,value
trypsin-processed Vip3Cb1 toxin (complex),stoichiometry N,4
